This is an account of results in publication PMC7538587.

In experiment [1] the target is SALT protein (Oryza sativa L. (Pusa basmati-1)) (UniProt A2WPN7). Put plainly: SEC; Superdex 200 10/300 GL, 200 µl of 5 mg/ml SALT, 20 mM each of mannose and galactose in sample and buffer; calibrated with marker proteins.
Experiment [2] shares this target. Put plainly: SAXS; SALT freshly eluted from gel filtration, 5, 11 and 22 mg/ml, 20 °C; molecular weight from SAXS about 32.2-33.4 kDa. In general terms: In gel filtration, larger molecules generally elute earlier.
For experiment [3] the target is unchanged. Put plainly: SDS-PAGE without heat denaturation; purified SALT, 1 mg/ml, 12% gel, with SDS and BME, not heated; confirmed by immunoblotting. A general note: In western blotting, separated proteins are transferred to a membrane and probed.

Several values for one entry are separate records, joined by “and”; a condition that tells them apart may be missing. Identical values can stand only once.

What is called stoichiometry N is a count of units in the complex or per binding partner. On to “SALT protein (from UniProt A2WPN7 1-145) (natural protein)”, for which the stoichiometry N in experiment [1] was 2; in experiment [2], 2; in experiment [3], 2 and 4.
